T1: human CX3CR1 (human, UniProt P49238 1-355)
T1 sequence: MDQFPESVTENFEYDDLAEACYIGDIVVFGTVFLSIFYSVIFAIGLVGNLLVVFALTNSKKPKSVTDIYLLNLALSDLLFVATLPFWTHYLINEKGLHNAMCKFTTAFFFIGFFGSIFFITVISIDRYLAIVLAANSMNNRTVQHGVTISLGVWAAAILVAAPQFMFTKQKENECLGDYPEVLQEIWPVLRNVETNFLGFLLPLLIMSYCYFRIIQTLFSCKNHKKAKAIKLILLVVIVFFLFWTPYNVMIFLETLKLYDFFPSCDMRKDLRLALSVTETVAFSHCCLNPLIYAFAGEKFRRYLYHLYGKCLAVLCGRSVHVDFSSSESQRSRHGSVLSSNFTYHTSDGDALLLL

T2: cynomolgus CX3CR1 (cynomolgus, UniProt P49238 1-355 (human entry))
T2 construct: transiently expressed on HEK293T cells; also called cyCX3CR1; cyno CX3CR1
T2 chain: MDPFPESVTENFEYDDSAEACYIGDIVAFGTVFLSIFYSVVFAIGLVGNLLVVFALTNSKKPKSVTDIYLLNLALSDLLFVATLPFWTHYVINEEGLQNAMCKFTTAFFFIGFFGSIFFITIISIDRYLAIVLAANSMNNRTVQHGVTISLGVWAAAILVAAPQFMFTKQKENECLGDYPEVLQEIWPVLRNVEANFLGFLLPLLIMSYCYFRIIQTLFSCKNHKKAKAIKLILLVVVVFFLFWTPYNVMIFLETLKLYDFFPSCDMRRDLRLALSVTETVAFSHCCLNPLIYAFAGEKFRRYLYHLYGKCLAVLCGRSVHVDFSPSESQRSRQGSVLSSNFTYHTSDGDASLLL


Tests used:
human CX3CR1 [1] = biological target: T1, human CX3CR1; assay: cell-based or functional assay
human CX3CR1 [2] = biological target: T1, human CX3CR1; assay: A647-fractalkine competition FACS, CHO-huCX3CR1
Source text: (§1) Periplasmic extracts were screened in a human CX3CR1/human Fractalkine FACS competition assay to assess the blocking capacity of the expressed VHHs. Human CX3CR1 was presented on CHO cells overexpressing CX3CR1. Both a setup using cells harvested from an actively growing culture and a setup using frozen cells was used. As a detection reagent labeled fractalkine was used (R&D Systems, Minneapolis, Minn., USA) labeled with alexa647 (A647-Fractalkine) at a degree of labeling of 1. To setup the assay, first a titration series of the labeled fractalkine was performed on the CHO-huCX3CR1 cells in order to determine the EC50 value for binding. Initially screening was performed at a higher concentration of fractalkine (3 nM) to increase the assay robustness. To increase the sensitivity of the screening to a maximum, the EC30 concentration (1 nM) was chosen for subsequent screening. In brief 50 μl of periplasmic extract was added to 6 nM labeled fractalkine (50 μ;) and 200 000 CHO-huCX3CR1 cells. After one hour incubation at 4 C, cells were washed three times before read out was performed on a FACS Array (Becton Dickinson). First a gate was set on the intact cells as determined from the scatter profile. Next, dead cells were gated out by their fluorescence profile from the PI stain (Sigma, St Louis, US). The fluorescence profile from the alexa647 label was determined for each sample and used for calculation of blocking capacity. As controls, conditions were taken along where there was no VHH present in the peri extract or a known irrelevant VHH and samples were included where excess cold fractalkine was included. For each sample the percentage block was determined using the control samples to determine the assay window.
(§2) The blocking capacity towards the ligand fractalkine of the VHHs was evaluated in a human CX3CR1 competition FACS as outlined in Example 4. Either CHO-huCX3CR1 cells, BA/F3-huCX3CR1 cells or transiently transfected HEK293T cells were used. The amount of labeled ligand used in the different competition setups was also varied. The IC₅₀ values for VHHs blocking the interaction of human fractalkine to human CX3CR1 are depicted in Table 19.

human CX3CR1 [3] = biological target: T1, human CX3CR1; assay: A647-fractalkine competition FACS, BA/F3-huCX3CR1
Source text: as §1, §2

human CX3CR1 [4] = biological target: T1, human CX3CR1; assay: A647-fractalkine competition FACS, HEK293-huCX3CR1
Source text: as §1, §2

human CX3CR1 [5] = biological target: T1, human CX3CR1; assay: A647-fractalkine competition FACS, HEK293T human CX3CR1
Source text: as §1
(§3) For later identified VHHs, a human Fractalkine competition FACS was set up using human or cynomolgus CX3CR1 expressed in HEK293T cells. Both the human and the cynomolgus receptor was transiently transfected in HEK293T cells and transfections were matched by the binding of the labeled ligand, human fractalkine. The competition was evaluated using the EC30 concentration of fractalkine and as such obtained IC50 values are a good estimate of the Ki value, a measure for affinity (Table 22). The experiment was performed as described in Example 4.

cynomolgus CX3CR1 [6] = biological target: T2, cynomolgus CX3CR1; assay: A647-fractalkine competition FACS, HEK293T cynomolgus CX3CR1
Source text: as §1, §3

cynomolgus CX3CR1 [7] = biological target: T2, cynomolgus CX3CR1; assay: A647-fractalkine competition FACS, cynomolgus against human CX3CR1
Source text: as §1, §3

human CX3CR1 [8] = biological target: T1, human CX3CR1; assay: periplasmic extract, A647-fractalkine competition FACS, CHO-huCX3CR1
Source text: as §1

human CX3CR1 [9] = biological target: T1, human CX3CR1; assay: cell-based or functional assay; remark: listed apart in the source
human CX3CR1 [10] = biological target: T1, human CX3CR1; assay: fractalkine competition FACS

Binder	% block, fractalkine induced chemotaxis (human CX3CR1 [1])	IC50, fractalkine induced chemotaxis (human CX3CR1 [1])	% block (human CX3CR1 [2])	IC50 (human CX3CR1 [2])	% block (human CX3CR1 [3])	IC50 (human CX3CR1 [3])	% block (human CX3CR1 [4])	IC50 (human CX3CR1 [4])	% block (human CX3CR1 [5])	IC50 (human CX3CR1 [5])	% block (cynomolgus CX3CR1 [6])	IC50 (cynomolgus CX3CR1 [6])	ratio (cynomolgus/human IC50) (cynomolgus CX3CR1 [7])	% block (human CX3CR1 [8])	% block, ligand induced chemotaxis (human CX3CR1 [9])	IC50, ligand induced chemotaxis (human CX3CR1 [9])	% block (human CX3CR1 [10])	IC50 (human CX3CR1 [10])
CX3CR1BII00306 (VHH, also called CX3CR1BII306) VHH: DVQLVESGGGLVQPGGSLRLSCAASGSIFSSTAMAWYRQAPGKRRDLVAAISSVGVTKYADSVKGRFTISRDNSKNTVYLQMNSLRPEDTAVYYCTSDPRRGWDTRYWGQGTLVTVSS	–	–	–	–	–	–	–	–	–	–	–	–	–	–	95%	63 nM	97%	1.7 nM
CX3CR1BIIPMP54G3 (VHH, also called 54G03; not shown: C-terminal c-myc and His6 tags) VHH: EVQLVESGGGSVQAGESLRLSCAASGSIFSSNAMAWYRQAPGKQRDLVALINSVGITKYADSVKGRFTISRDNAKNTVYLQMNSLKPEDTAVYYCTSDPRRGWDTRYWGQGTLVTVSS	40%	–	107%	56 nM	98%	98 nM	89%	270 nM	89%	270 nM	89%	470 nM	1.74	74.7%	–	–	–	–
CX3CR1BII00308 (VHH, also called CX3CR1BII308) VHH: DVQLVESGGGLVQPGGSLRLSCAASGSIFSSNAMAWYRQAPGKRRDLVAAINSVGVTKYADSVKGRFTISRDNSKNTVYLQMNSLRPEDTAVYYCTSDPRRGWDTRYWGQGTLVTVSS	–	–	–	–	–	–	–	–	–	–	–	–	–	–	89%	44 nM	97%	1.6 nM
CX3CR1BIIPMP61E2 (VHH, also called 61E02; not shown: C-terminal c-myc and His6 tags) VHH: EVQLVESGGGSVQAGESLRLSCAASGSIFSSNAMAWYRQAPGKQRDLVAGINSVGITKYADSVKGRFTISRDNAKNTVYLQMNSLKPEDMAVYYCTSDPRRGWDTRYWGQGTQVTVSS	–	–	–	–	–	–	98%	82 nM	98%	82 nM	96%	46 nM	0.55	70.3%	–	–	–	–
CX3CR1BII00307 (VHH, also called CX3CR1BII307) VHH: DVQLVESGGGLVQPGGSLRLSCAASGSIFSSTAMAWYRQAPGKRRDLVAAISTVGVTKYADSVKGRFTISRDNSKNTVYLQMNSLRPEDTAVYYCTSDPRRGWDTRYWGQGTLVTVSS	–	–	–	–	–	–	–	–	–	–	–	–	–	–	100%	63 nM	97%	1.9 nM
CX3CR1BIIPMP54D8 (VHH, also called 54D08; CX3CR1BII54D08; not shown: C-terminal c-myc and His6 tags) VHH: EVQLVESGGGSVQAGGSLRLSCAASGSIFSSNAMAWYRQAPGKQRDLVAGINSVGITKYADSVKGRFTISRDNAKNTVYLQMNSLKPEDTAVYYCTSDPRRGWDTRYWGQGTLVTVSS	33%	–	101%	15 nM	99%	38 nM	95%	84 nM	95%	84 nM	91%	72 nM	0.85	64.1%	–	–	–	–

The remaining lines, values ahead:

% block, fractalkine induced chemotaxis (human CX3CR1 [1])	IC50, fractalkine induced chemotaxis (human CX3CR1 [1])	% block (human CX3CR1 [2])	IC50 (human CX3CR1 [2])	% block (human CX3CR1 [3])	IC50 (human CX3CR1 [3])	% block (human CX3CR1 [4])	IC50 (human CX3CR1 [4])	% block (human CX3CR1 [5])	IC50 (human CX3CR1 [5])	% block (cynomolgus CX3CR1 [6])	IC50 (cynomolgus CX3CR1 [6])	ratio (cynomolgus/human IC50) (cynomolgus CX3CR1 [7])	% block (human CX3CR1 [8])	% block, ligand induced chemotaxis (human CX3CR1 [9])	IC50, ligand induced chemotaxis (human CX3CR1 [9])	% block (human CX3CR1 [10])	IC50 (human CX3CR1 [10])	Binder
73%	100 nM	108%	25 nM	99%	33 nM	92%	67 nM	92%	67 nM	95%	470 nM	7.05	90.1%	–	–	–	–	CX3CR1BIIPMP54B3 (VHH, also called 54B03; not shown: C-terminal c-myc and His6 tags) VHH: EVQLVESGGGSVQAGESLRLSCAASGSIFSSNAMAWYRQAPGKQRDLVAAINSVGITKYADSVKGRFTISRDNAKNTVYLQMNSLKPEDTAVYYCTSDPRRGWDTRYWGQGTQVTVSS
–	–	–	–	–	–	96%	42 nM	96%	42 nM	100%	200 nM	4.8	94.5%	–	–	–	–	CX3CR1BIIPMP61G4 (VHH, also called 61G04; not shown: C-terminal c-myc and His6 tags) VHH: KVQLVESGGGSVQAGGSLRLSCAASGSIFSSNAMAWYRQAPGKQRDLVAAINSVGITKYADSVKGRFTISRDNAKNTVYLQMMSLKPEDTAVYYCTSDPRRGWDTRYWGQGTQVTVSS
–	–	–	–	–	–	96%	46 nM	96%	46 nM	95%	160 nM	3.58	96.5%	–	–	–	–	CX3CR1BIIPMP61F11 (VHH, not shown: C-terminal c-myc and His6 tags) VHH: KVQLVESGGGSVQAGESLRLSCAASGSIFSSNAMAWYRQPPGKQRDLVAAINSVGITKYADSVKGRFTIFRDNAKNTVYLQMNSLKPEDTAVYYCTSDPRRGWDTRYWGQGTQVTVSS
54%	400 nM	–	–	–	–	99%	14 nM	99%	14 nM	100%	120 nM	8.29	–	–	–	–	–	CX3CR1BIIPMP66G01 (VHH, also called CX3CR1BII66G01; not shown: C-terminal c-myc and His6 tags) VHH: EMQLVESGGGSVQAGESLRLSCAASGSIFSSNAMAWYRQAPGKQRDLVALINSVGITKYADSVKGRFTISRDNAKNTVYLQMNSLKPEDTAVYYCTSDGRRGWDTRYWGQGTQVTVSS
–	–	–	–	–	–	94%	10 nM	94%	10 nM	92%	45 nM	4.37	94.5%	–	–	–	–	CX3CR1BIIPMP61B2 (VHH, also called 61B02; not shown: C-terminal c-myc and His6 tags) VHH: EVQLVESRGGSVQAGASLRLSCAASGSIFSSNAMAWYRQAPGKQRDLVAVINTVGITKYADSVKGRFTISRDNAKNTVYLQMNSLKPEDTAVYYCTSDARRGWDTRYWGQGTQVTVSS
–	–	–	–	–	–	96%	60 nM	96%	60 nM	89%	300 nM	5.02	92.1%	–	–	–	–	CX3CR1BIIPMP61G3 (VHH, also called 61G03; not shown: C-terminal c-myc and His6 tags) VHH: KVQLVESGGGSMQAGESLRLSCAASGSIFSSNAMAWYRQAPGKQRDLVAAINSVGITKYADSVKGRFTISRDNAKNTVYLQMMSLKPEDTAVYYCTSDPRRGWDTRYWGQGTQVTVSS
